The results in this text go back to patent publication US20210380994A1, “LACTOCOCCUS LACTIS EXPRESSION SYSTEM FOR DELIVERING PROTEINS EFFICACIOUS FOR THE TREATMENT OF EPITHELIAL BARRIER FUNCTION DISORDERS” (Second Genome, Inc., priority 2018, published 2021).

In data set [1] the test system is mice treated with DSS. Briefly: DSS model of colitis with SG-11V5 protein and SG-11V5-expressing L. lactis (Example 22). It is filed as in vivo. The method, then:
Specifically, the mice in this Example 22 were treated with DSS, a chemical known to induce intestinal epithelial damage and thereby reduce intestinal barrier integrity and function. These DSS mice were then administered an L. lactis strain expressing SG-11V5 as described above, or a positive or negative control treatment.
In this study, 3 independent groups of mice (10 mice per group) were used to test the 3 different L. lactis strains: Group 1: L. lactis harboring parent pNZ8124 vector, Group 2: L. lactis harboring inducible SG-11V5 vector (PnisA:otsBA::PnisA:SPusp45:SG-11V5), and Group 3: L. lactis harboring constitutive SG-11V5 vector (PnisA:otsBA::Pusp45:SPusp45:SG-11V5). Each of the strains in Groups 1-3 had been grown until the cultures reached an OD600 of about 0.5, induced with nisin for 2 hours, concentrated to about 10^11 cells/mL in PBS with glycerol, and stored at −80° C. Cells were analyzed by Western blot to confirm protein expression. An additional 4 groups of mice (n=10 per group) were included as controls: Group 4: untreated; Group 5: treated p.o. with vehicle only; Group 6: intraperitoneal (i.p.) administration of Gly2-GLP2 (50 nmoles/kg); and Group 7: i.p. administration of SG-11V5 protein (160 nmoles/kg (4.0 mg/kg).
I.p. administration of Gly2-GLP2 and SG-11V5 was done twice per day, with i.p. administration to the right abdomen in the morning and to the left abdomen in the evening for 6 consecutive days (Day 0-Day 5) and then to the right abdomen on Day 6 prior to euthanasia and tissue recovery. Gly2-GLP2 (CPC Scientific Peptide Company) was prepared by dissolving in PBS(Corning 21-040-CV) with 5 mM NaOH to a concentration of 5 mg/mL Aliquots were stored at −80C prior to use.
Following a 7-day acclimation period, treatments wore initiated in the morning (AM) of Day 0 with i.p. administration of Gly2-GLP2 or purified SG-11V5 protein as a positive control, oral gavage of strain vehicle only (phosphate buffered saline (PBS; Corning 21-040-CV)), or with oral gavage administration of the appropriate L. lactis expression strain.
Fresh drinking water treated with 2.5% DSS was prepared and provided to all the mice on Days 0, 2, and 4 about 6 hours after AM dosing. […] Also, treatments were continued with the L. lactis strains described above once a day (q.d) in the morning with p.o. administration at 10^10 CFU of the strains comprising i) pNZ8124 vector, ii) inducible SG-11V5 vector, or iii) constitutive SG-11V5 vector.
On Day 6, only AM dosing was performed for intraperitoneal (i.p.) injection of protein and oral gavage (p.o) administration of L. lactis strains expressing SG-11V5 protein. Mice were fasted for 4 hours and then orally gavaged with 600 mg/kg 4KDa dextran labeled with fluorescin isothiocyanate (FITC) [4KDa-FITC]. About 50 minutes after the 4KDa-FITC gavage, mice were anesthetic with ketamine (ket)/xylazine (xyl) drug. Mice were injected with 10 ml/kg i.p of 10 mg/ml ketamine and 1 mg/ml xylazine (100 ul per 10 g body weight). One hour after administering 4KDa-FITC and about 10 minutes after ketamine/xylazine anesthesia, mice were euthanized, and blood and tissues were collected to assess barrier function and DSS model readouts. […]
Upon completion of the DSS models above, LBP levels were measured as an inflammation centric readout of barrier function following the protocol detailed above in Examples 7 and 13. […] LBP levels were measured in serum using a commercially available ELISA Kit (Enzo Life Sciences). […]

Data set [2] in a line: post-translational modification (PTM) analysis by LC/MS/MS peptide mapping. Particulars: non-stress. It is filed as physicochemical. The method, then:
Studies were performed to identify residues of SG-11 particularly susceptible to PTMs using LC/MS/MS. The analysis was performed by LakePharma (Belmont, Calif.) to 1) confirm the amino acid sequence of SG11 (SEQ ID NO-9), and 2) determine any post-translational modification which could lead to reduced biological activity and immunogenicity, particularly deamidation and oxidation.
For peptide mapping and PTM analysis, samples were treated with DTT and IAA, followed by trypsin digestion. The digested sample was then analyzed by Waters ACQUITY UPLC coupled to Xevo G2-XS QTOF mass spectrometer using a Protein BEH C18 column.

Data set [3] is described as follows: stability by analytical size exclusion chromatography and Ellman's reagent assay (Example 9). It is filed as physicochemical. The protocol: The stability of SG-11 (SEQ ID NO:9) was evaluated following the incubation at 37° C. for one week and at 4° C. for 3 weeks in Buffer C (100 mM sodium phosphate, pH 7.0, 0.5 M sorbitol). The stability was assessed by monitoring aggregation formation with analytical size exclusion chromatography (SEC) equilibrated with Buffer D (100 mM sodium phosphate, pH 7.0, 10% glycerol). […] The cause of the aggregation was investigated as follows. There are two cysteine residues found in SG-11 at positions 147 and 151 (relative to SEQ ID NO:7). […] As free sulphydryl groups could cause aggregation by forming unpreferable intermolecular disulfide bonds, it was examined whether the presence of reducing agent, such as β-mercaptoethanol, could prevent the aggregation.

Setting [4] is: SG-11V5 protein 160 nmoles/kg i.p. b.i.d.
The mark [5] stands for this setting: normalized to corresponding precursor.
[6] abbreviates: normalized to total peptide ion intensity.

B1: SG-11V5: variant of SEQ ID NO:7 with N53S, N83S, C147V, C151S (protein)
chain: MLEGEESVVYVGKKGVIASLDVETLDQSYYDETELKSYVDAEVEDYTAEHGKSAVKVESLKVEDGVAKLKMKYKTPEDYTAFSGIELYQGKVVASLAAGYVYDGEFARVEEGKVVGAATKQDIYSEDDLKVAIIRANTDVKVDGEIVYVSSQNVKLTGKDSVSIRDGYYLETGSVTASVDVTGQESVGTEQLSGTEQMEMTGEPVNADDTEQTEAAAGDGSFETDVYTFIVYK
modifications: Artificial variant of SG-11 (N53S, N83S, C147V, C151S)
With B1, the body weight entry in data set [1] (SG-11V5 160 nmoles/kg i.p. b.i.d., day 6) was “significant improvement in body weight”. For the same molecule, in data set [1] (setting [4]), the colon length entry is recorded as “significant increase in the colon length” and the colon weight-to-length ratio entry is reported as “significant decrease in the colon weight-to-length ratio”. Further, the “gross pathology (clinical score 0-5)” value in data set [1] (SG-11V5 protein 160 nmoles/kg i.p. b.i.d., p<0.0001) is “significant improvement in gross pathology”. Also, in data set [1] (SG-11V5 protein 160 nmoles/kg i.p. b.i.d., vs DSS + vehicle), the “4KDa-FITC dextran translocation across the epithelial barrier” value was “non-significant increase”.

B2: SG-11: Roseburia hominis protein comprising SEQ ID NO:3; tested as SEQ ID NO:5, SEQ ID NO:7 or FLAG-tagged SEQ ID NO:9 (protein, listed as Rosburia hominis)
chain: LEGEESVVYVGKKGVIASLDVETLDQSYYDETELKSYVDAEVEDYTAEHGKNAVKVESLKVEDGVAKLKMKYKTPEDYTAFNGIELYQGKVVASLAAGYVYDGEFARVEEGKVVGAATKQDIYSEDDLKVAIIRANTDVKVDGEICYVSCQNVKLTGKDSVSIRDGYYLETGSVTASVDVTGQESVGTEQLSGTEQMEMTGEPVNADDTEQTEAAAGDGSFETDVYTFIVYK
With B2, in data set [2] (setting [5]), the “Deamidation N83 (peptide TPEDYTAFNGIELYQGK), % peptide” value came to 3.77%; the “Deamidation N137 (peptide ANTDVK), % peptide” value is listed as 1.03%; the “Deamidation N153 (peptide VDGEICYVSCQNVK), % peptide” value was 0.2%. Besides, the “Deamidation N53 (peptide NAVK), % peptide” value in data set [2] (normalized to total intensity of corresponding precursor with or without modification) is recorded as 7.84%. In data set [2] (setting [6]), the “Deamidation N53 (peptide NAVK), % total ion” value came out at 0.01%; the “Deamidation N83 (peptide TPEDYTAFNGIELYQGK), % total ion” value is recorded as 0.25%; the “Deamidation N137 (peptide ANTDVK), % total ion” value is recorded as 0.25%; the “Deamidation N153 (peptide VDGEICYVSCQNVK), % total ion” value amounted to 0.01%. Further, the “Oxidation M1 (peptide MLEGEESVVYVGK), % total ion” value in data set [2] (setting [6]) was less than 0.01%. Further, the “aggregation by analytical SEC” value in data set [3] (4-days incubation at 37° C. in the presence of 2.5% (v/v) β-mercaptoethanol) is “greatly suppressed”. Further, in data set [3] (4° C. for 3 weeks in Buffer C (100 mM sodium phosphate, pH 7.0, 0.5 M sorbitol), vs freshly thawed protein), the “aggregation formation by analytical SEC” value was “No noticeable change”. The “aggregation formation by analytical SEC” value in data set [3] (37° C. for one week in Buffer C) is “clearly showed aggregation peaks”. In addition, the “free sulfhydryl groups (Ellman's reagent assay)” value in data set [3] (SG-11 (SEQ ID NO:9)) is recorded as “presence of free sulfhydryl groups”.
